Test results reported in patent publication US20150307603A1 (MODIQUEST B V, published 2015).
Non-standard residues stand in square brackets, D forms with d. No end group written: not given here. Cit = NC(=O)NCCC[C@H](N)C(=O)O

Legend:
msVim XS/XL [1] = molecular target: T1, msVim XS/XL (mouse, also: biotin-labelled); assay: ELISA, Ab 0.4 ug/well
T1 construct: also called mouse vimentin peptide
T1 peptide: YVT[Cit]SSAV[Cit]L[Cit]SSVP
Method: (§1) Biotin and citrulline-containing peptides derived from fibrinogen and vimentin were immobilized on NEUTRAVIDIN®-coated 96-well ELISA plates (0.3 μg/well). CFC-1 and CFC-0 were coated at the same concentration and served as positive and negative controls, respectively, for specific anti-citrulline reactivity and as coating controls. Non-coated wells were used to test for aspecific binding of the antibodies. […] Detection of bound anti-citrulline antibodies was performed by incubating the wells with rabbit anti-human HRP (1:2000) for 1 hour at RT followed by incubation with TMB substrate. The resulting OD (y-axis) is a measure for antibody binding.
(§2) Biotin-labeled and citrulline-containing fibrinogen and vimentin peptides (Table 5) were also tested for reactivity with the therapeutic antibodies. Peptides were coated on 96-well NEUTRAVIDIN®-ELISA plates.

msFibβ XG [2] = molecular target: T2, msFibβ XG (mouse, also: biotin-labelled); assay: ELISA, Ab 0.4 ug/well
T2 construct: also called mouse fibrinogen β peptide
T2 peptide: EPTDSLDA[Cit]GHRPVDRR
Method: as §1, §2

huFibα XG [3] = molecular target: T3, huFibα XG (human, X at position 8 = citrulline; biotin-labelled); assay: ELISA, Ab 0.4 ug/well
T3 peptide: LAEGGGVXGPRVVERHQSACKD
Method: as §1, §2

huFibα XH [4] = molecular target: T4, huFibα XH (human, X at position 15 = citrulline; biotin-labelled); assay: ELISA, Ab 0.4 ug/well
T4 peptide: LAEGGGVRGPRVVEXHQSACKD
Method: as §1, §2

CFC-1 [5] = molecular target: T5, CFC-1; assay: ELISA, Ab 0.4 ug/well
T5 construct: Positive control for anti-citrulline reactivity; also called cfc1 XG; Cfc1-peptide
Method: as §1, §2

msFibα XH [6] = molecular target: T6, msFibα XH (mouse, X at position 15 = citrulline; biotin-labelled); assay: ELISA, Ab 0.0032 ug/well
T6 peptide: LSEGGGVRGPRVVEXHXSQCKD
Method: as §1, §2

msVim XS/XL [7] = molecular target: T1, msVim XS/XL; assay: ELISA, Ab 0.0032 ug/well
Method: as §1, §2

msFibβ XG [8] = molecular target: T2, msFibβ XG; assay: ELISA, Ab 0.0032 ug/well
Method: as §1, §2

huFibα XG [9] = molecular target: T3, huFibα XG; assay: ELISA, Ab 0.0032 ug/well
Method: as §1, §2

huFibα XH [10] = molecular target: T4, huFibα XH; assay: ELISA, Ab 0.0032 ug/well
Method: as §1, §2

msFibα XG [11] = molecular target: T7, msFibα XG (mouse, X at position 8 = citrulline; biotin-labelled); assay: ELISA, Ab 0.0032 ug/well
T7 peptide: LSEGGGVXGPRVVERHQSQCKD
Method: as §1, §2

CFC-1 [12] = molecular target: T5, CFC-1; assay: ELISA, Ab 0.0032 ug/well
Method: as §1, §2

[13] = molecular target: T8, peptide no. 5 (human histone 2A) (human, also: biotin-labelled); assay: ELISA, Ab 0.016 ug/well
T8 construct: also called peptide 5
T8 peptide: VGRVH[Cit]LLRKGN
Method: as §1, with “histone 2A” for “fibrinogen and vimentin”

[14] = molecular target: T9, peptide no. 4 (human histone 2A) (human, also: biotin-labelled); assay: ELISA, Ab 0.016 ug/well
T9 construct: also called peptide 4
T9 peptide: QFPVG[Cit]VHRLLR
Method: as §1, with “histone 2A” for “fibrinogen and vimentin”

[15] = molecular target: T10, peptide no. 7 (human histone 2A) (human, also: biotin-labelled); assay: ELISA, Ab 0.016 ug/well
T10 construct: also called peptide 7
T10 peptide: GNYSE[Cit]VGAGAP
Method: as §1, with “histone 2A” for “fibrinogen and vimentin”

[16] = molecular target: T11, peptide no. 6 (human histone 2A) (human, also: biotin-labelled); assay: ELISA, Ab 0.016 ug/well
T11 construct: also called peptide 6
T11 peptide: VHRLL[Cit]KGNYSE
Method: as §1, with “histone 2A” for “fibrinogen and vimentin”

[17] = molecular target: T12, peptide no. 12 (human histone 2A) (human, also: biotin-labelled); assay: ELISA, Ab 0.016 ug/well
T12 construct: also called peptide 12
T12 peptide: NKLLG[Cit]VTIAQG
Method: as §1, with “histone 2A” for “fibrinogen and vimentin”

[18] = molecular target: T13, peptide no. 1 (human histone 2A) (human, also: biotin-labelled); assay: ELISA, Ab 0.016 ug/well
T13 construct: also called peptide 1; AAASGXGKQGGK
T13 peptide: AAASG[Cit]GKQGGK
Method: as §1, with “histone 2A” for “fibrinogen and vimentin”

[19] = molecular target: T14, peptide no. 10 (human histone 2A) (human, also: biotin-labelled); assay: ELISA, Ab 0.016 ug/well
T14 construct: also called peptide 10
T14 peptide: TRIIP[Cit]HLQLAI
Method: as §1, with “histone 2A” for “fibrinogen and vimentin”

[20] = molecular target: T15, peptide no. 9 (human histone 2A) (human, also: biotin-labelled); assay: ELISA, Ab 0.016 ug/well
T15 construct: also called peptide 9
T15 peptide: DNKKT[Cit]IIPRHL
Method: as §1, with “histone 2A” for “fibrinogen and vimentin”

[21] = molecular target: T16, peptide no. 8 (human histone 2A) (human, also: biotin-labelled); assay: ELISA, Ab 0.016 ug/well
T16 construct: also called peptide 8
T16 peptide: AGNAA[Cit]DNKKTR
Method: as §1, with “histone 2A” for “fibrinogen and vimentin”

CFC-1 [22] = molecular target: T5, CFC-1; assay: ELISA, Ab 0.016 ug/well
Method: as §1, with “histone 2A” for “fibrinogen and vimentin”

msFibα XH [23] = molecular target: T6, msFibα XH; assay: ELISA, Ab 2 ug/well
Method: as §1, §2

msVim XS/XL [24] = molecular target: T1, msVim XS/XL; assay: ELISA, Ab 2 ug/well
Method: as §1, §2

msFibβ XG [25] = molecular target: T2, msFibβ XG; assay: ELISA, Ab 2 ug/well
Method: as §1, §2

huFibα XG [26] = molecular target: T3, huFibα XG; assay: ELISA, Ab 2 ug/well
Method: as §1, §2

huFibα XH [27] = molecular target: T4, huFibα XH; assay: ELISA, Ab 2 ug/well
Method: as §1, §2

msFibα XG [28] = molecular target: T7, msFibα XG; assay: ELISA, Ab 2 ug/well
Method: as §1, §2

CFC-1 [29] = molecular target: T5, CFC-1; assay: ELISA, Ab 2 ug/well
Method: as §1, §2

B1: RhmAb2.102 (antibody, human IgG1, lambda)
heavy: not shown
light: QSVLTQPPSMSAAPGQKVTISCSGSSSNIGNNYVSWYQQVPGTAPKLLIYDDNKRPSGIPGRFSGSKSATSATLGITGLQAGDEADYYCGSWDDNLSVVLFGGGTKLTVLGQPKAAPSVTLFPPSSEELQANKATLVCLISDFYPGAVTVAWKADSSPVKAGVETTTPSKQSNNKYAASSYLSLTPEQWKSHRSYSCQVTHEGSTVEKTVAPTECS
notes: Human IgG1 lambda; also called Rhm2.102
Work on B1 yielded an OD (msVim XS/XL [1]) of 1.45 OD450, an OD (msFibβ XG [2]) of 1.67 OD450 and an OD (huFibα XG [3]) of 0.521 OD450. The OD (huFibα XH [4]) was 0.09 OD450, the OD (CFC-1 [5]) was 3.79 OD450 and the OD (msFibα XH [6]) was 0.085 OD450. The OD (msVim XS/XL [7]) was 0.142 OD450, the OD (msFibβ XG [8]) was 0.12 OD450 and the OD (huFibα XG [9]) was 0.125 OD450. The OD (huFibα XH [10]) was 0.123 OD450, the OD (msFibα XG [11]) was 0.125 OD450 and the OD (CFC-1 [12]) was 0.506 OD450. The OD [13] was 0.065 OD450, the OD [14] was 0.084 OD450 and the OD [15] was 0.061 OD450. The OD [16] was 0.075 OD450, the OD [17] was 0.057 OD450 and the OD [18] was 0.843 OD450. For the same binder, the OD [19] was 0.066 OD450, the OD [20] was 0.064 OD450 and the OD [21] was 0.063 OD450. For the same binder, the OD (CFC-1 [22]) was 1.46 OD450, the OD (msFibα XH [23]) was 0.091 OD450 and the OD (msVim XS/XL [24]) was 2.77 OD450. It also gave an OD (msFibβ XG [25]) of 3.15 OD450, an OD (huFibα XG [26]) of 1.51 OD450 and an OD (huFibα XH [27]) of 0.116 OD450. The OD (msFibα XG [28]) was 1.9 OD450 and the OD (CFC-1 [29]) was 3.97 OD450.
